# Data as given in the nanobody polyreactivity screen of Harvey et al. (2022).
# Experiment: yeast display, Sf9 membrane polyspecificity reagent, FACS + sequencing; frameworks hold sequencing errors
# Summary of the method: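 Synthetic nanobody libraries on Saccharomyces cerevisiae BJ5465 were galactose-induced for 36–48 hours, stained 1 hour at 4 °C with 10% biotinylated, detergent-solubilized Sf9 membrane reagent and enriched on streptavidin microbeads. FACS then separated cells into low and high (top ~1%) gates by anti-HA (expression) and streptavidin (reagent binding) fluorescence. Genes were colony-PCR amplified, MiSeq 2 × 250 sequenced and CDR-length filtered. A clone's polyreactivity label is that of its gate of origin.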
row,Sequence,polyreactivity (PSR sort gate)
1,QVQLVESGGGIVQAGGSLRLSCAASGFTFGAYAMGWSRQAPGKEGELVASISWSGGSTYYADSVKGRFTISRDHAKNTVNLQMNSLKPEDTAVYYCNKDFVYPDDDGLFDYWGQGTQETVSS,low polyreactivity
2,QVQLVESGVGLVQAAGSLRLSCAASGRIFYHYTMGWYRQAPGKERELVAAITSGGSTYYADSVKGRFTISRDNAKNTVYLQMNSLKPEDTAVYYCAAEGYTYYPVYSTRMYYWGQGTQVTVSS,low polyreactivity
3,QVQLVESGGGLVQAGGSLRLSCAASGGTIVWNAMGWYRQAPGKERELVAAITWSGGSTYYADSVKGRFTISRDNAKNTVYLPMNSLQPEATAVYYCNADRFGRAHVYPEFDYWGQGTQVTVSS,low polyreactivity
4,QVQLVESGGGLVQAGGSLRLSCAASGRIFDYNAMRRYRQAPGKERELVAAINSGGSTYADSVKGRFTISRDNAKNTVYLQMNSLKPEDTGVYDCAKSLGQTVWEYDSWGQGTQVTVSS,low polyreactivity
5,QVQLVESGGGLVQAGGSHRLSCAASGRILYRNVMGWYRQAHGKERELVAGISFTGGSTYYADSVKRRFTISRDNAKNTVYLQMNSLKPEDTAVYYCAATYSSYWARYYYWGQGTPVTVSS,high polyreactivity
6,QVHLVESGGGLVQAGGSLRLSCAASGRIYRVNGMGWYRQAPGTERELVAAIRRSGGSTYYADSVKGRFTISRDIAKNTVYLQMNSLKPEDTAVYYCAARVRQSSYTRYDSWGQGTQVTVSS,high polyreactivity
7,QVQLVESGGGLVQAGGSLRLSCAASGGIFYGNVMGWYRHAPGKERELVADITSVGSTYYADSVKGRFTISRDNAKNTVYLQMNSLKPEDTAVYYCAAETYLVFSTWYGYDYCGQGTQVTVSS,low polyreactivity
8,QVQLVESGGGLVQAGGSLSLSCAASGIIFYYYAMGWYRQAPGKERELVAAISTSGGRTYYADSVKGRFTISRDNAKNTVYLQMNSMKPEDTAVYYCAADYLKGEEDYWGQGTQVTVSS,low polyreactivity
9,QVQLVESGVGLVQAGGSLRLSCASSGILVYNAMAWYRQAPGKERELVAAISARGGRTYYADSVKGRFTISRDNAKNTVYLQMNSLKPEDTAVYYCATLETTGVNYWGQGTQVTVSS,high polyreactivity
10,QVQLVESGGGLVQAGGSLRLSCAASGSTFYGNAMGWYRQAPGKERELVAAIRWRGGRTYYADSVKGRFTISRDNAKNTVYLQMNSLKPEDTAVYYCNALPGVSHTQYDRVGYWGQGTQVTVSS,high polyreactivity
11,QVQLVESGGGLLQAGGSLSLSCAASGFTFIGYAMGWYRQATGKEREFVAAISWSGGRTYYADSVKGRFTISRDNAKNTVYLQMNSLKPEDTAVYYCAARGSRKPDWGLGYWGQGTQVTVSS,high polyreactivity
12,QVQLEDSGGGLVQAGGSLRLSCAASGRTFPYKAMGWYRQAPGKERELVAAITSSGGSTYYADSVKGRFTISRDNAKNTVYLQMNSLKPEDTAVYYCAKGYYSPNYYYWGQGTQVTVSS,high polyreactivity
13,QVQLVESGGGLVQAGGSLRLSCAASGRTFYYYYTMGWYRQAPGKERELVAAISRSGSTNYADSVKGRFTISRDNAKNSVYLQMNSLKPEDTAVYYCAKETNRVGRYQWGQGTQVTVSS,low polyreactivity
14,QVQLVESGGGLVQAGGSLRLSCAASGFTFGAYAKGWSRQAPGKEWELVASISWSGTSTYYADSVKGRFTISRDNAKNTVYLQMNSLKPEDTAVYYCAAGYRSTRYDYWGQGTQVTVSS,high polyreactivity
15,QVQLVESAGGLVQAGGSLRLSCAASGNTFPPYPMGWYRQAPGKERELVAAISCGGRTYYADSVKGRFTISRDNAKNTVYLQMNSLKPEDTAVYYCAVYVPNYYSYHYDYWGQGTQVTVSS,high polyreactivity
16,QVQLVESGAGLVQAGGSLRLSCSASGRTFPGYAMGWYRQAPGKERELVATISSADSTNYADSVKGRFTISRDNGKNTVYLQMNSLKAEDTAVYYCAKRYGRNGAAAQYTGGYRYDYWGQGTQVSVSS,low polyreactivity
17,QVQLVESGGGLVQAGGSLRLSCAASGFILYYYALGWYRQAPGKEWEIVAAISRNGGRTYYADSVKGRFTISRDNAKNTVYLQMISLKPEDTAVDYCNKGVSRTLSSAYEYWGQGTQVTVSS,high polyreactivity
18,QVQLVESGGGLVQAGGSLRLSCAASGFTFCQYVMGWYRQAPGKERELVAAINWSGGSTYYADSVKGRFTISRDNAKNTVYLQMNSLKPEDTAVYYCNAVKAPYLRYDYWGQGTQVTVSS,high polyreactivity
19,QVQLVESGGGLVQAGGSLRLSCAASGRIFRGYAMGWYRQAPGKERELVAAITKRGGSTYYADSVKGRFTISRDNAKNTVYFQMNSLKPEDTAVYYCAAYLPGWELREYGYWGQGTQVTVSS,high polyreactivity
20,QVQLVESGGGLVQAGGSLRLSCAASGLIFITYAMGWYRQAPGKERELVATITLRGGSTYYADSVKGRFTISRDNAKNTVYLQMNSLKPEDTAVYYCAADVGYWGRSSGYPSDDYDYWGQGTQVTVSS,low polyreactivity
21,QVQLVESCGGLLQAGGSLRLSCAASGRTFTQYAMGCYRQAPGKERELVAAISWSDDITYYADSVKGRCTISRDIAQYTVYLQMNSLKPEDTAVYYCATEGYWGYDYDYWGQGTQVTVSS,high polyreactivity

row,Sequence,polyreactivity (PSR sort gate)
1,QVQLVESGGRLVQAGGSLRLSCAASGRIIGVNAMGWYRQAPGKERELVATITSGGSTYADSVKGRFTISRDNAKNTVYLQMNSLKPEDTAVYFCNALIYKRVTRYPYVRLMDYWGQGTQVTVSS,high polyreactivity
2,QVQLVESGGGLFQAGGSLRLSCAASGSIFTKYAMGWYRQAPGKERELVAAISQGGASTRYADSVKGRFTISRDNAKKTVYLQMNSLKPEDTAVYYCAAKSRHFWMDYWGQATQVTVSS,high polyreactivity
3,QVQLVESGGGLVQAGGSLRLSCAASGRIFGKYAMGWYRQAPGKERELVAAITRRGGSTYYADSVKGRFTISRDNAKNTVYLQMNSLKPEDTAVYYCNAALTGYRVSPTRHRYDYWGQGTQVTVSS,high polyreactivity
4,QVQLVESGGGLVQAGGSLRLSCAASGSIFTRNAMGWYRQAPGKERELVASISYSGGNTYYADSVKGRFTISRDNAKNTVYLQMNSLKPEDTAVYYCNARRWFYLLYGYDYWGQGTQVTVSS,high polyreactivity
5,QVQLVESGGGLVQAGGSLRLSCAASGGIFHGNTMGWYRQAPGKERELVAAISNSGGSTYYADSVKGRFTISRDNAKNTVYLQMNSLKPEDTAVYYCARVGYKLYQYKYDYWGQGTQVTVSS,low polyreactivity
6,QVQLVESGGGLVQAGGSLRLSCAASGSIFWFNAMGWYRQAPGKEREFVASISRSGGTTYYAHSVKGRFTISRDNAKNTVYLQMNSLKPEDTAVYYFNARAYGNGLGTGYFGKHRYDYWGQGTQVTVSS,low polyreactivity
7,QVQLVESGGGLVQAGGSLRLSCAASGSTYYNAMGWYRQAPGKERELVAAIRFRSGSTYYADSVKGRFTISRDNAKNTVYLQMNSLKPEDTAVYYCNKVPYRGYRRYGYWGQGTQVTVSS,high polyreactivity
8,QVQLVESGGGLVQAGGSLRLSCAASGGIFPGNTMGWYRLAPRKESELVAAISNGVSTNYADSVKGRFTISRDNAKNTVYLQMNSLKPEDTAVYYCAADWSWWDGEDYHFEYDYWGQGTQVTVSS,low polyreactivity
9,QVQLVESAGGLVQAGGSLRLSCAASGFIFGKNAMGLYRQAPGKERELVAVITRSGSRTYYADSVKGRLTISRDNAKNTVYLQMNSLKPEDTAVYYCATDNVYAYDYWGLGTQVTVSS,high polyreactivity
10,QVQLVESGGGLVQAGGSLRLSCAAYGSIFRVYAMGWYREAAGKERELVATISWSAGSTYYADSVKGRFTISRDNAKNTVYLQMNSLKPEDTAVYYCAADPVGYYDPSDYWGQGTQVTVSS,low polyreactivity
11,QVQLVESGGGLDQAGGSLRLSCAASGRTFGYNAMGWYRQAPGKERELVAAINWSGASTYYADSVKGRFTISRDNAKNTVYLQMNSLKPEDTAVYYCAARRKRVSFFPEYDYWGQGTQVTVSS,low polyreactivity
12,QVQLVESGGGLVQAVGSLRLSCAASGFISKYYAMGWYRQAPGKERELVASISRDGSTSYADSVKGRFTISRDNAKNTVYLQMNSLKPEDTAVYYCAAPSYRTRYYYWGQGTQVTVSS,high polyreactivity
13,QVQLVESGGGLVQAGGSLRLSCAASGLTFTGYAMGWYRQAPGKERELVAAISSRGGSTYYADSVKGRFTISRDNAKNTVYLQMNSLKPEDTAVYYCAARASSGARGLDYWGQGTQVTVSS,high polyreactivity
14,QVQLVESGGGLVQAGGSLRLSCAASGFTFWRNTMGWYRQEPGKERELVAGISGSGGSTYYADSVKGRFTSSRDNAKNTVYLQMNSLKPEDTAVYYCAKEPNVGTWRRWRYNYCGQGTQVTVSS,high polyreactivity
15,QVQLVESGGGLVQAGGSLRLSCAASGSIFVSEYVMGLSRPAPGKERELVARIRWSSGSTYYADSVKGRFTISRDNAKNTVYLQIYSLKPEDTAVYYCNKDYYYVIGWTYHRSYHYDYWGQGTQVTVSS,low polyreactivity
16,QVQLVESGGGLVQAGGSLRLSCPASGTLTVNTMGWYRQAPGKERELVAAISTGDTTTYADSVKGRFTISRDNAKNTVYVQMNSLKPEDTAVYYCNVDIGVYAYESDYWGQGSQVTVSS,low polyreactivity
17,QVQLVESGGGVVQAGGSLRLSCAASGFIFSVIVMGWYRQAPGKERELVASIPSGGSPYYADSVKGRFTISRDNAKNTVYLQMNSLKPEDTAVYYCAAEFVRSVEHHPGFDYWGQGTQVTVSS,low polyreactivity
18,QVQLVESGGGLVQAGGSLRLSCAASGRTFVNNAMGWYRQAPGKERELVAAISQSGSRTYYADSVKRRFTISRDNAKNSVYLQMNSLNTEDTAVYDCAARGARSSTSDDWGQGTQVTVSS,high polyreactivity
19,QVQLVESGGGLVQAGGSLRLSCAASGRTFYTNALGWYRQAPGKERELVAVISRGGTTYYADSVKGRFTISRDNAKNTVYLQMNSLKPEDTAVYYCAKQRPSGDSSSQMGSWGQGTQVTVSS,low polyreactivity
20,QVQLVESGGGLVQAGGSLRLSCAASGRIFSTYVMGCYRQAPGKERELVAAITRGGSTNYADSVKGRFTISRDNAKNTVYLQMNSLKPEDTAVYYCNAQRRGTYYLGQGTQVTVSS,high polyreactivity
